Reference: US20240343803A1 (SHANDONG SIMCERE BIOPHARMACEUTICAL, published 2024)
Where two headings read alike, the source gives them in different places.

Legend:
[1] = target: T1, Fusion protein of extracellular domain of human TIGIT and His-tag (human TIGIT ECD-his) (human); experiment: BIAcore
T1 chain: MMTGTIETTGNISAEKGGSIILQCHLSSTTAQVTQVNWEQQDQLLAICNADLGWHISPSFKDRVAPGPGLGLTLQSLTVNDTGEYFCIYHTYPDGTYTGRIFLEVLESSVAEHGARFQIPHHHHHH

[2] = target: T2, Fusion protein of extracellular domain of cynomolgus monkey TIGIT and mouse IgG2a Fc fragment (cynomolgus … (cynomolgus monkey)); experiment: ELISA, cynomolgus monkey TIGIT ECD-mFc
T2 construct: The entry includes the signal peptide (limits not recoverable) and the mouse IgG2a Fc
T2 sequence (chain, as listed by the source limits assumed): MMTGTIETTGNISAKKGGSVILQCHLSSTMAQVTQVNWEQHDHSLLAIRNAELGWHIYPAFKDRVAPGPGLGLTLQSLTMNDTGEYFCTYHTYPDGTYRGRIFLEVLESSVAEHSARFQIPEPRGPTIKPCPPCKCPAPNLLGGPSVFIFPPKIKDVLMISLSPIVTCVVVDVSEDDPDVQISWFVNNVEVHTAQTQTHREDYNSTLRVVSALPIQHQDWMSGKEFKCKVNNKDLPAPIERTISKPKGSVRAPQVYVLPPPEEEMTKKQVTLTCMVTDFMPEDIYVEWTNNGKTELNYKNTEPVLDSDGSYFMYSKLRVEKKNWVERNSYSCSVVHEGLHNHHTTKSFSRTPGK
Procedure, shortened: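 Plates blocked with 5% skim milk-PBS at 37° C for 2-4 h. Test antibodies applied as a 12-point 3-fold series from 13 nM for 1.5-2 h at 37° C. Read-out: HRP secondary (1:5000, 1 h, 37° C), TMB colour for 7-10 min at room temperature, acid stop, absorbance at OD450 nm.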

[3] = target: T2, Fusion protein of extracellular domain …; experiment: ELISA, cynomolgus monkey TIGIT ECD-mFc; remark: listed apart in the source
[4] = target: T3, Full-length human TIGIT on CHO-K1 cells (CHO-K1 human TIGIT) (human, UniProt Q495A1 22-244); experiment: FACS; CHO-K1 human TIGIT low expression strain
T3 construct: NCBI XP_024309156.1; the entry includes the signal peptide (limits not recoverable); The strain (high, medium, low) is named under assay; also called high expression strain 1D2; medium expression strain 2D10
T3 sequence: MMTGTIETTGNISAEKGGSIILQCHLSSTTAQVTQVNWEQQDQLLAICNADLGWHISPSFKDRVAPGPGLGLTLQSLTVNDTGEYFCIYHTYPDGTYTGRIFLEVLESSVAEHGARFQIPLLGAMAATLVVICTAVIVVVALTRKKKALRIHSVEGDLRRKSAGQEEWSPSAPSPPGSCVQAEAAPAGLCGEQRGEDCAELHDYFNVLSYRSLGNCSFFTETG
Procedure, shortened: (§1)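 The EC50 was derived from binding curves obtained by flow cytometry on CHO-K1 cells expressing full-length TIGIT of human or cynomolgus monkey origin. Cells (2×10⁵/50 μL, 1% BSA-PBS) were mixed 1:1 with a 12-point, 3-fold antibody dilution series that began at 80 nM before mixing, then incubated for 60 min at 4° C.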

[5] = target: T3, Full-length human TIGIT on CHO-K1 cells …; experiment: FACS; CHO-K1 human TIGIT high expression strain
Procedure, shortened: as §1

[6] = target: T3, Full-length human TIGIT on CHO-K1 cells …; experiment: FACS; CHO-K1 human TIGIT medium expression strain
Procedure, shortened: as §1

[7] = target: T4, human PVRIG-his (AcroBiosystems, Cat NO. PVG-H52H4) (human, UniProt Q6DKI7 41-171, limits assumed); experiment: SPR (BIAcore), antibody captured on Protein A chip, human PVRIG-His analyte
T4 construct: also called human PVRIG protein
T4 sequence (looked up): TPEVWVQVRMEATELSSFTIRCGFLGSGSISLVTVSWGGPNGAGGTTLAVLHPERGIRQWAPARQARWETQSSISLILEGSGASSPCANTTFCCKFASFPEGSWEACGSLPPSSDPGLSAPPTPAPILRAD
Protocol: Biacore was used to detect the specific binding between anti-PVRIG antibody and human PVRIG protein. Protein A chip was used in the BIAcore assay. The time required for the chip to capture the diluted antibody and saturate the binding antigen to reach Rₘₐₓ (Maximum binding capacity, 50 RU) was measured by manual run. […] The affinity of antibody for antigen was measured by multi-cycle kinetics. In each cycle, the antibodies were injected prior to the injection of gradient concentraions of PVRIG proteins allowing the occurrence of antibody-antigen association and dissociation After each cycle, the Protein A chip was regenerated by Glycine, pH 1.5 (to remove the proteins on the chip). The affinity of antibody for antigen was calculated by BIAcore T200 analysis software.

Binder | Kd [1] | koff [1] | kon [1] | EC50 [2] | EC50 [3] | EC50 [4] | EC50 [5] | EC50 [6] | Kd [7] | koff [7] | kon [7]
TIGIT-070-H1L1 (antibody, V domains shown, Humanized anti-TIGIT antibody) VH: EVQLVQSGAEVKKPGASVKVSCKASGYTFTNYYMHWVRQAPGQRLEWMGRIDPDSGGSKYNEKFKSRVTITVDKSASTAYMELSSLRSEDTAVYYCAREGHYGFYSDYWGQGTTVTVSS VL: DIQMTQSPSSLSASVGDRVTITCRVSENIYSYLAWYQQKPGKSPKLLIYNAKTLAEGVPSRFSGSGSGTDFTLTISSLQPEDFATYYCQHHYGNPLTFGPGTKVDIK | 251 pM | 0.000219 s⁻¹ | 875000 M⁻¹ s⁻¹ | 12.3 pM | 34.7 pM | 305 pM | 494 pM | 450 pM | – | – | –
PVRIG-A118 (Fc fusion, heavy chain antibody VHH-hinge-CH2-CH3, human IgG1 constant part; not shown: human IgG1 hinge-CH2-CH3) QVQLVESGGGLVQAGGSLRLSCAASETYFDLYVMGWYRQAPGKDRELVATITYTGSIKIVDSVKDRFTISRGDAKNTVSLQMSSLKPEDTAVYFCNADPSGLGRKVYWGQGTQVTVSS | – | – | – | – | – | – | – | – | 480 pM | 0.00114 s⁻¹ | 2.38e+06 M⁻¹ s⁻¹
TIGIT-002-H4L3 (antibody, V domains shown, Humanized anti-TIGIT antibody) VH: EVQLQESGPGLVKPSETLSLTCAVSGYSITSDSWNWIRQPPGKKLEYIGYISYSGNTYYNPSLKSRVTISRDTSKNQFSLKLSSVTAADTAVYYCARLDFSNYGGAVDYWGQGTTVTVSS VL: DIVMTQSPDSLAVSLGERATINCKASQNVRTAVAWYQQKPGQSPKLMIYSASYRYTGVPDRFSGSGSGTDFTLTISSLQAEDVAVYYCQQYYTTPWTFGGGTKVEIK | 99.4 pM | 0.000293 s⁻¹ | 2.95e+06 M⁻¹ s⁻¹ | 18.9 pM | 42.7 pM | 170 pM | 297 pM | 228 pM | – | – | –
TIGIT-006-H5L3 (antibody, V domains shown, Humanized anti-TIGIT antibody) VH: EVQLQESGPGLVKPSETLSLTCAVSGYSMTSDYWNWIRQPPGKKLEYIGYISYSGRTYYNPSLKSRVTISRDTSKNQFSLKLSSVTAADTAVYYCARGDYSNYGGAMYDWGQGTTVTVSS VL: DIVMTQSPDSLAVSLGERATINCRASQGVSTTIAWYQQKPGQSPKLLIYSASYRYTGVPRFSGSGSGTDFTLTISSLQAEDVAVYYCQQYYSSPFTFGGGTKVEIK | 115 pM | 0.000183 s⁻¹ | 1.6e+06 M⁻¹ s⁻¹ | 13.2 pM | 40.6 pM | 268 pM | 443 pM | 396 pM | – | – | –
TIGIT-005-H2L1d (antibody, V domains shown, Humanized anti-TIGIT antibody with NG-site mutation in VL) VH: EVQLVQSGAEVKKPGASVKVSCKASGYAFTNYLIEWVRQAPGQRLEWMGVINPGSGGTNYKEKFKGRVTITADKSSSTAYMELSSLRSEDTAVYYCARGEYFFFDYWGQGTTVTVSS VL: DIVMTQSPDSLAVSLGERATINCKASQHVSNAVAWYQHKPGQSPKLLIYSASYRYTGVPDRFSGSGSGTDFTLTISSLQAEDVAVYYCQQHYNTPHTFGGGTKVEIK | 85.2 pM | 0.000257 s⁻¹ | 3.02e+06 M⁻¹ s⁻¹ | 40.3 pM | 39.5 pM | 186 pM | 321 pM | 285 pM | – | – | –
PVRIG-A105 (Fc fusion, heavy chain antibody VHH-hinge-CH2-CH3, human IgG1 constant part; not shown: human IgG1 hinge-CH2-CH3) EVQLVESGGGLVQAGGSLRLSCAASGRTFDRHTMTWFRQAPGKEREFVATASRIPGDTYYSHSVKGRFTISRDNAKNTVYLQLNNLKPEDTAVYYCAATSAYCSEVDCYEKGSWYDNWGQGIQVTVSS | – | – | – | – | – | – | – | – | 841 pM | 0.000443 s⁻¹ | 527000 M⁻¹ s⁻¹
PVRIG-A50 (Fc fusion, heavy chain antibody VHH-hinge-CH2-CH3, human IgG1 constant part; also called PVRIG-50; not shown: human IgG1 hinge-CH2-CH3) EVQLVESGGGLVQPGGSLRLSCAASGFTFSYYDMSWVRQAPGKGLEWVSTINSNGGRTSYVDSVKGRFTISRDNTKNTLYLQMNSLKPEDTAVYYCVEGDPHNFGLENLSLRDFGSWGQGTQVTVSS | – | – | – | – | – | – | – | – | 25.4 pM | 1.29e-05 s⁻¹ | 507000 M⁻¹ s⁻¹
